Measured values: the supplement of paper PMC10126150
± gives the standard deviation of the averaged measurements.

tested on: ATP; assay: switch fluorescence ratio, 500 uM ATP over buffer (Cy3 cluster intensity, sum of 5 cycles each) (fold (ratio)); higher = stronger signal-on switching upon ATP binding; sequences stand for … in TCGTCGGCAGCGTCAGATGTGTATAAGAGACAGTTTTTTTTTTTTTTTTTTTTTTTTT…TC; details: aptamer strand: ATP DNA aptamer (quencher-CACCTGGGGGAGTATTGCGGAGGAAGG + anchor), 100 nM annealed; ATP concentration: 500 uM
Method in brief: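 Switching-strand clusters labelled with Cy3 on a modified Illumina MiSeq flow-cell were annealed to 100 nM quencher-labelled ATP aptamer, imaged in selection buffer, and re-imaged after 15 min with 500 uM ATP at 22 °C. This was done over five cycles with NaOH stripping and re-annealing in between. The fluorescence ratio is summed target-cycle over summed buffer-cycle Cy3 intensity per cluster, averaged per switch-domain sequence, excluding clusters outside 100-1000 RFU.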
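Note: ATP exposure 15 min at 22 °C before imaging.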

| Sequence | switch fluorescence ratio |
| --- | --- |
| TCGGCGTTGA | 0.992 ± 0.02 |
| TCGGCTAAAT | 1.003 ± 0.0063 |
| TCGGCTTTGA | 1.01 ± 0.03 |
| TCGGGAATTG | 1.04 ± 0.085 |
| TCGGGCCGG | 0.994 ± 0.023 |
| TCGGGCCTGT | 1 ± 0.034 |
| TCGGGCTAGC | 0.986 ± 0.012 |
| TCGGGGAGCG | 0.949 ± 0.042 |
| TCGGGGCAGC | 0.998 ± 0.042 |
| TCGGGGCGAA | 1.85 ± 1.3 |
| TCGGGGCTAG | 0.989 ± 0.025 |
| TCGGGGGATG | 0.987 ± 0.019 |
| TCGGGGGATT | 0.966 ± 0.028 |
| TCGGGGGTGT | 1.02 ± 0.029 |
| TCGGGGGTTA | 1.01 ± 0.023 |
| TCGGGGGTTG | 0.996 ± 0.056 |
| TCGGGGTACG | 1.01 ± 0.015 |
| TCGGGGTTAT | 1.04 ± 0.083 |
| TCGGGGTTCT | 1.01 ± 0.0064 |
| TCGGGGTTTG | 1 ± 0.016 |
| TCGGGTAAGA | 1.04 ± 0.026 |
| TCGGGTACTT | 1.04 ± 0.055 |
| TCGGGTAGTT | 1.04 ± 0.055 |
| TCGGGTCTGT | 0.979 ± 0.025 |
| TCGGGTGGTA | 1.05 ± 0.097 |

| Sequence | switch fluorescence ratio |
| --- | --- |
| TCGGTAGGG | 0.9717 ± 0.003 |
| TCGGTAGGGA | 0.96 ± 0.021 |
| TCGGTAGTTA | 1.01 ± 0.047 |
| TCGGTATTGG | 1.09 ± 0.1 |
| TCGGTCGGGA | 1.022 ± 0.0017 |
| TCGGTCTTTT | 0.974 ± 0.029 |
| TCGGTGATTG | 0.991 ± 0.016 |
| TCGGTGGGGT | 0.982 ± 0.0061 |
| TCGGTGGGTG | 1.012 ± 0.0066 |
| TCGGTTAGTG | 0.991 ± 0.036 |
| TCGGTTGGTG | 0.969 ± 0.042 |
| TCGGTTGTCC | 0.978 ± 0.018 |
| TCGGTTTTAA | 1.01 ± 0.036 |
| TCGGTTTTTT | 1.01 ± 0.038 |
| TCGTAAACTT | 1.025 ± 0.005 |
| TCGTAACTGT | 1.03 ± 0.016 |
| TCGTAAGGGT | 1.18 ± 0.26 |
| TCGTACACGT | 0.978 ± 0.015 |
| TCGTACAGTA | 1.02 ± 0.029 |
| TCGTACGTTG | 1.01 ± 0.022 |
| TCGTACTTAT | 1.12 ± 0.18 |
| TCGTAGGCAT | 1.004 ± 0.0036 |
| TCGTAGTCGT | 0.995 ± 0.064 |
| TCGTATCAAG | 0.969 ± 0.026 |
| TCGTATGTTA | 0.97 ± 0.014 |

| Sequence | switch fluorescence ratio |
| --- | --- |
| TCGTATTGGG | 1 ± 0.056 |
| TCGTCAAGTT | 1.007 ± 0.01 |
| TCGTCAGCGA | 2.77 ± 0.06 |
| TCGTCAGTG | 0.991 ± 0.012 |
| TCGTCGCGTA | 0.978 ± 0.14 |
| TCGTCGGGGA | 1.01 ± 0.014 |
| TCGTCGGTGG | 1 ± 0.011 |
| TCGTCGTCCT | 1.02 ± 0.024 |
| TCGTCTGGTT | 0.988 ± 0.03 |
| TCGTGACTGT | 1.02 ± 0.065 |
| TCGTGCTACA | 0.97 ± 0.041 |
| TCGTGGCGAG | 1.01 ± 0.028 |
| TCGTGGCTGT | 1 ± 0.042 |
| TCGTGGGAGC | 1.014 ± 0.0089 |
| TCGTGGGGAT | 1 ± 0.021 |
| TCGTGGGTGG | 1.03 ± 0.056 |
| TCGTGTACGC | 1 ± 0.023 |
| TCGTGTAGGG | 0.984 ± 0.014 |
| TCGTGTATGT | 1.014 ± 0.0039 |
| TCGTGTTCGG | 0.971 ± 0.029 |
| TCGTTAATGT | 1.01 ± 0.035 |
| TCGTTCATGA | 1 ± 0.061 |
| TCGTTCGCGG | 1.12 ± 0.015 |
| TCGTTCGTCT | 0.973 ± 0.039 |
| TCGTTGACGT | 0.985 ± 0.04 |

| Sequence | switch fluorescence ratio |
| --- | --- |
| TCGTTGAGGC | 1.037 ± 0.0072 |
| TCGTTGTCGT | 1.04 ± 0.03 |
| TCGTTGTGAG | 1.004 ± 0.0089 |
| TCGTTGTGTA | 0.995 ± 0.03 |
| TCGTTTACTT | 1.06 ± 0.13 |
| TCGTTTAGGA | 0.974 ± 0.031 |
| TCGTTTAGGT | 0.977 ± 0.026 |
| TCGTTTATTA | 1 ± 0.089 |
| TCGTTTGATT | 1.01 ± 0.019 |
| TCGTTTGTTT | 0.982 ± 0.04 |
| TCGTTTTCGT | 0.9787 ± 0.009 |
| TCGTTTTTTT | 1.07 ± 0.13 |
| TCTAAAAAAG | 0.991 ± 0.028 |
| TCTAAAAGAT | 0.9771 ± 0.0026 |
| TCTAAAATG | 0.972 ± 0.029 |
| TCTAAATGGG | 1.029 ± 0.005 |
| TCTAACAGCC | 1.06 ± 0.028 |
| TCTAAGTTTT | 0.97 ± 0.01 |
| TCTAATACAG | 1.03 ± 0.032 |
| TCTAATATAC | 1.62 ± 0.028 |
| TCTACGAGAG | 1.04 ± 0.048 |
| TCTAGATAAA | 1.04 ± 0.052 |
| TCTAGATGGT | 0.992 ± 0.025 |
| TCTAGGGGAG | 1.007 ± 0.0099 |
| TCTAGGGGGT | 0.9766 ± 0.0071 |
